Results: the RNAGym collection of RNA variant scans (doi:10.7554/elife.80360)

B1: HDV Ribozyme (parent)
chain: GGCCGGCAUGGUCCCAGCCUCCUCGCUGGCGCCGGCUGGGCAACAUUCCGAGGGGACCGUCCCCUCGGUAAUGGCGAAUGGGACCCA

Variants of: B1
Assay: self-cleavage, relative activity (ratio to wild type); higher = more cleavage; co-transcriptional

Row | Variant | self-cleavage
1 | GGCCGGCAUGGUCCCAGCCUCCUCGCUGGCGCCGGCUGGGCAACAUUUCGAGGGGACCGUCCCCUCGGUCAUGGCGAAUGGGACCCA [C48U A70C] | 0.649
2 | GGCCGGCAAGGUCCCAGCCUCGUCGCUGGCGCCGGCUGGGCAACAUUCCGAGGGGACCGUCCCCUCGGUAAUGGCGAAUGGGACCCA [U9A C22G] | 0.0519
3 | GGCCGGCAUGGUCCCAGCCUCCUCGCUGGCGCCGGCUGGGCACCAUUCCGAGGGGACCGUCCCCUCGGUAAGGGCGAAUGGGACCCA [A43C U72G] | 0.293
4 | GGCCGGCAUGGUCCCAACCUCCUCGCUGGCGCCGGCUGGGCAACAUUCGGAGGGGACCGUCCCCUCGGUAAUGGCGAAUGGGACCCA [G17A C49G] | 0.565
5 | GGCCGGCAUGGUCCCAGCCUCCUCGCUGGCGCCGGCUUGGCAACAUUCCGAGGGGACCGUCCCCUCAGUAAUGGCGAAUGGGACCCA [G38U G67A] | 0.237
6 | GGCCGGCAUGGUCCCAGCCUCCUCGCUGGCGCCGGCUGGGCAACAUUCCGAGGGGACCGUCCCCUCCGUAAUGGCCAAUGGGACCCA [G67C G76C] | 1.09
7 | GGCCGGCAUGGUCCCAACCUCCUCGCUGGCGCCGGCUGGGCAACAUUCCGAGGGGACCGUCCCCUCGCUAAUGGCGAAUGGGACCCA [G17A G68C] | 0.575
8 | GGCCGGCAUGGUCCCAGCCUCCUCGCUGGCGCCGGCUGGGCAACAUUCCGGGGGGACCGUCCCCUCGGUAAUGGCGAAUGGGACCGA [A51G C86G] | 0.702
9 | GGCCGGCAUGGCCCCAGCCUCCUCGCUGGCGCCGGCUGGGCAACAUUCCGAGGGGAGCGUCCCCUCGGUAAUGGCGAAUGGGACCCA [U12C C57G] | 0.0831
10 | GGCCGGCAUGGUCCCAGCCUCCUCGCUGGUGCCGGCUGGGCAACAUUCCGAGGGGAUCGUCCCCUCGGUAAUGGCGAAUGGGACCCA [C30U C57U] | 0.932
11 | GGCCGGCAUGGUCCCAGCCUCCUCGCUGGCGCCGGCUGGUCAACAUACCGAGGGGACCGUCCCCUCGGUAAUGGCGAAUGGGACCCA [G40U U47A] | 0.427
12 | GGCCGGCAUGGUCCCAGCCGCCUCGUUGGCGCCGGCUGGGCAACAUUCCGAGGGGACCGUCCCCUCGGUAAUGGCGAAUGGGACCCA [U20G C26U] | 0.256
13 | GGCCGGCAUGGUCCCACCCUCCUCGCUGGCGCCGGCUGGGCAACAUGCCGAGGGGACCGUCCCCUCGGUAAUGGCGAAUGGGACCCA [G17C U47G] | 0.217
14 | GGCCGGCAUGGUCCCAGCCUCCUCGCUGGCGGCGGCUGGGCAACAUUCCGGGGGGACCGUCCCCUCGGUAAUGGCGAAUGGGACCCA [C32G A51G] | 0.0665
15 | GGCCGGCAUGGUCCCAGCCUCCUCGCUGGCGCCGGCUGGGCAACAUUCCGAGGGGACCGUCCCCUCGGAAAUGCCGAAUGGGACCCA [U69A G74C] | 0.297
16 | GGCCGGCAUGGUCCCAGCCUCCACGCUGGCGCCGGCUGGGCAACAUUCCGAGGCGACCGUCCCCUCGGUAAUGGCGAAUGGGACCCA [U23A G54C] | 1.15
17 | GGCCGGCAUGGUCCCAUCCUCCUCGCUGGCGCCGGCUGGGCAACAUUCCGAGGGGACCGUCCCCUCGGUAAUGGCGAAUGGGCCCCA [G17U A83C] | 0.219
18 | GGCCGGCAUGGUCCCAGCCUCCUCGCUGGCGCCGGCUGGGGAACAUUCCGAGGGGACCGUCCCCUCGGAAAUGGCGAAUGGGACCCA [C41G U69A] | 0.609
19 | GGCCGGCAUGGACACAGCCUCCUCGCUGGCGCCGGCUGGGCAACAUUCCGAGGGGACCGUCCCCUCGGUAAUGGCGAAUGGGACCCA [U12A C14A] | 0.0504
20 | GGCCGGCAUGGUCCCAGCCUCCUCGCUGGCGCCGGCUGGGCAACAUUCCCAGGGGACCGUCCCCUCGGUAAUGGCUAAUGGGACCCA [G50C G76U] | 1.04
21 | GGGCGGCAUGGUCCCAGCCUCCUCGCUGGCGCCGGCUGGGCAACAUUCCGAGGGGACCGUCCCCUCGGUAAUGGAGAAUGGGACCCA [C3G C75A] | 0.119
22 | GGCCGGCAUGGUCCCAGCCUCCGCCCUGGCGCCGGCUGGGCAACAUUCCGAGGGGACCGUCCCCUCGGUAAUGGCGAAUGGGACCCA [U23G G25C] | 0

Row | Variant | self-cleavage
23 | GGCCGGCAUGGUCCCAGCCUCCUCGCUGGUGCCGGCUGGGCAACAUUCCGAGGGAACCGUCCCCUCGGUAAUGGCGAAUGGGACCCA [C30U G55A] | 0.691
24 | GGCCGGCAUGGUCCCAGCCUCCUCGCUGGCGCCGGCUGGGCAACAUUCCGAGGGGACCUUCCCCUCGGUAAUGGCGAAUGGGACCUA [G59U C86U] | 0.852
25 | GGCCGGCAUGGUCCCAGCCUCCUCGCUGGCGCCGGCUGGGCAACAUUCCGAGGGGUCCGUUCCCUCGGUAAUGGCGAAUGGGACCCA [A56U C61U] | 0.755
26 | GGCCGGCAUGGUCCCAGCCUCCUCGCUGGCGACGGCUGGGCAACAUUCCGAGGGGACCGUCCCAUCGGUAAUGGCGAAUGGGACCCA [C32A C64A] | 0.166
27 | GGCCGGCAUGGUCCCAGCCUCUUCGCUGGCGCCGGCUGGGCAACAUUCCGAGGGGACCGUCCCCUCGGUAAUGGCCAAUGGGACCCA [C22U G76C] | 0.763
28 | GGCCGGCAUGGUCCCAGCCUCCUCGCUGGCGCCGGCUGGGCUACAUUCCGAGGGAACCGUCCCCUCGGUAAUGGCGAAUGGGACCCA [A42U G55A] | 0.604
29 | GGCCGGCAUGGUCCCAGCCUCCUCGCUGGCGCCGGCUGGGCAACAUUCCGAGGUGACCGUCCCCUCGGUAAUGGCGAAAGGGACCCA [G54U U79A] | 0.982
30 | GGCCGGCAUGGUUCCAGCCUCCUCGCUGCCGCCGGCUGGGCAACAUUCCGAGGGGACCGUCCCCUCGGUAAUGGCGAAUGGGACCCA [C13U G29C] | 0.0332
31 | GGCCGGAAUGGUCCCAGCCUCCUCGCUGGCGCCGGCUGGGCAUCAUUCCGAGGGGACCGUCCCCUCGGUAAUGGCGAAUGGGACCCA [C7A A43U] | 0.0386
32 | GGCCGGCAUGGUCCAAGCCUCCUCGCUGGCGCCGGCUGGGCAACAUUCCGAGGGGACCGUCCCCUCGGUAAUGGCAAAUGGGACCCA [C15A G76A] | 0.712
33 | GGCCGGCAUGGUCCCAGCCUCCUCGCUCGCGCCGGCUGGGCAACAUUCCGAGGGGACCGUCCCCUCCGUAAUGGCGAAUGGGACCCA [G28C G67C] | 0.0923
34 | GGCCGUCAUGGUCCCAGCCUCCUCGCUGGCGCCGGCUGGGCAACAUUCCGAUGGGACCGUCCCCUCGGUAAUGGCGAAUGGGACCCA [G6U G52U] | 0.397
35 | GGCCGGCAUAGUCCCAGCCUCCUCGCGGGCGCCGGCUGGGCAACAUUCCGAGGGGACCGUCCCCUCGGUAAUGGCGAAUGGGACCCA [G10A U27G] | 0.98
36 | GGCCGGCAUGGUCCCAGCCUCCUCGCGGGCGCCGGCUGGGCAACAUCCCGAGGGGACCGUCCCCUCGGUAAUGGCGAAUGGGACCCA [U27G U47C] | 0.383
37 | GGCCGGCAUGGUCCCAGCCUCCUCGCUGCCGCCGGCUGGGCAACAUUCCGAGGGGACCGUCCCCUCGGUAAUGGCGAAUGCGACCCA [G29C G81C] | 0.18
38 | GGCCGGCAUGGUCCCAGCCUCGUCGCUGGCGCCGGCUGGGCAACAUUCCGAGGGGACCGUCCCCUCGGUAAUGGCGAAUGGGGCCCA [C22G A83G] | 0.126
39 | GGCCGGCAUGGUCCCAGCCUCCUCGCUGGCGCCGGCUGGGCAACAUUCCGAAGGGACCGUCCCCUCGGUAAUGGCGAAUGUGACCCA [G52A G81U] | 0.244
40 | GGCCGGCAUGGUCCCAGCCUCCCCGCUGGCGCCGGCUGGGCAACAUUCCGAGGGGACCGUCCCCUCGUUAAUGGCGAAUGGGACCCA [U23C G68U] | 0.897
41 | GGCCGGCAUGGUCCCAGACUCCUCGCUGGCGCCGGCUGGACAACAUUCCGAGGGGACCGUCCCCUCGGUAAUGGCGAAUGGGACCCA [C18A G40A] | 0.0426
42 | GGCCGCCAUGGUCCCAGCCUCCUCGCUGGCGCCGGCUGGGCAACAUUCCGAGGGGACCGUCACCUCGGUAAUGGCGAAUGGGACCCA [G6C C62A] | 0.161
43 | GGCCGACAUGGUCCCAGCCUCCUCGCUGGCGCCGGCUGGUCAACAUUCCGAGGGGACCGUCCCCUCGGUAAUGGCGAAUGGGACCCA [G6A G40U] | 0.911
44 | GGCCGGCAUGGUCCCAGCCUCCUCGCUGGCGCCGGCUGGGCAACAUUCCGAGGGGCCCGUCCCCUCGGUAAAGGCGAAUGGGACCCA [A56C U72A] | 0.95

Row | Variant | self-cleavage
45 | GGCCGGCAUGGUCCCAGCCUCCUCGCUGGCGCCGGCUGGGCAACAUUCCGAGGGGACCGUACCCUCGUUAAUGGCGAAUGGGACCCA [C61A G68U] | 0.623
46 | GGCCGGCAUGGUCCCAGCCUUCUCGCUGGCGCCGGCUGGGCAACAUUCCGACGGGACCGUCCCCUCGGUAAUGGCGAAUGGGACCCA [C21U G52C] | 0.173
47 | CGCCGGCAUGGUCCCAGCCUCCUCGCUGGCGCCGGCUGGGCAACAUUCCGAGGGGACUGUCCCCUCGGUAAUGGCGAAUGGGACCCA [G1C C58U] | 0.0923
48 | GGCCGGCAUGGUCCCAGCCUCCUCGUUAGCGCCGGCUGGGCAACAUUCCGAGGGGACCGUCCCCUCGGUAAUGGCGAAUGGGACCCA [C26U G28A] | 0.234
49 | GGCCGGCUUGGUCCCAGCCUCCUCGCUGGCGCCGGCUGGGCAACAUUCCGAGGGGACCGUCCCCUCGGUAAUGGCGAAGGGGACCCA [A8U U79G] | 0.289
50 | GGCCGGCAUGGUCCCAGCCUCCUCGCUGGCGCCGGCUGGGCUACAUUCCGAGGGGACCGCCCCCUCGGUAAUGGCGAAUGGGACCCA [A42U U60C] | 0.554
51 | GGCCGGCAUCGUCCCAGCCUCCUCGCUGCCGCCGGCUGGGCAACAUUCCGAGGGGACCGUCCCCUCGGUAAUGGCGAAUGGGACCCA [G10C G29C] | 0.155
52 | GGCCGGCAUGGUCUCAGCCUCCUCGCUGGCGCCGGCUGGGCAACAUUCCGAGGGGACCGUCCCCUCGGUAAUGGAGAAUGGGACCCA [C14U C75A] | 0.208
53 | GGCCGGCAAGGUCCCAGCCUCCUCGCUGGCGCCGGCUGGGCAACACUCCGAGGGGACCGUCCCCUCGGUAAUGGCGAAUGGGACCCA [U9A U46C] | 0.831
54 | GGCCCGCAUGGUCCCAGCCUCCUCGCUGGCGCCGGCGGGGCAACAUUCCGAGGGGACCGUCCCCUCGGUAAUGGCGAAUGGGACCCA [G5C U37G] | 0.111
55 | GGUCGGCAUGGUCCCAGCCUCCUCGCUGGCGCCGGCUGGGCAACAUUCCGAGGGGACCGUCCCCUCGGUAAUGGCGUAUGGGACCCA [C3U A77U] | 0.354
56 | GGCCGGCAUGGUCCCAGCCUCCUCGCUGGCGCCGGCUGGGCAACAUUCCGAGGGGACCGUACCCUCGGUAAUGGCGAAUGGCACCCA [C61A G82C] | 0.228
57 | GGCCGGCAUGGUCCCAGCCUCGUCACUGGCGCCGGCUGGGCAACAUUCCGAGGGGACCGUCCCCUCGGUAAUGGCGAAUGGGACCCA [C22G G25A] | 0.0396
58 | GGCCGGCAUGGUACCAGCCUCCUCGCUGGCGCCGGCUGGGCAACUUUCCGAGGGGACCGUCCCCUCGGUAAUGGCGAAUGGGACCCA [C13A A45U] | 0.128
59 | GGCCGGGAUGGUCCCAGCCUCCUCGCUGGCGCCGGCUGGGCAACAUUCCGAGGGGACCGUCCCCUCCGUAAUGGCGAAUGGGACCCA [C7G G67C] | 0.0573
60 | GGCCGGCAUGGUCCCAGCCUCCUAGCUGGCGCCGGCUGGGCAACAUUCCGAGGGGACCGUCCCCUCGGCAAUGGCGAAUGGGACCCA [C24A U69C] | 0.712
61 | GGCCGGCAUGGUCCCAGCCUCCUCGCUGGCGCCGGGUGGGCAACAUUCCGAGGGGACCGUCCCCUCGGUAAGGGCGAAUGGGACCCA [C36G U72G] | 0.151
62 | GGCCGGCAUGGUCCCAGCCUCCUCGCUGGCGCCGGCUGGGCAACAUUCAGAGGGGACCGUCCCCUCGGUAAUGGCGAAUGGGGCCCA [C49A A83G] | 0.546
63 | GGCCGGCAUGGUCCCAGUCUCCUCGCUGGCGCCGGCUGGGCAACAUUCCGAGGGGACCGUCCCCUCGGUCAUGGCGAAUGGGACCCA [C18U A70C] | 0.514
64 | GGCCGGCAUGGUCCCAGCCUCCUCGCUGGCGACGGCUUGGCAACAUUCCGAGGGGACCGUCCCCUCGGUAAUGGCGAAUGGGACCCA [C32A G38U] | 0.181
